Experimental findings from paper PMC8495968, “Towards optimizing peptide-based inhibitors of protein–protein interactions: predictive saturation variation scanning (PreSaVS)” (RSC Chemical Biology, 2021) are described below.

Experiment [1] has as its target MCL-1 (Homo sapiens), Q07820. In words: ITC. Particulars: modification not given.
Experiment [2] concerns the target MCL-1 (Homo sapiens), Q07820. In words: fluorescence anisotropy competition. Conditions: modification not given. (Polarisation of emitted light reports the rotation of a fluorescent probe.)

Some results are limits rather than exact numbers.

Chain of MCL-1 (Homo sapiens), Q07820 (Q07820 whole entry): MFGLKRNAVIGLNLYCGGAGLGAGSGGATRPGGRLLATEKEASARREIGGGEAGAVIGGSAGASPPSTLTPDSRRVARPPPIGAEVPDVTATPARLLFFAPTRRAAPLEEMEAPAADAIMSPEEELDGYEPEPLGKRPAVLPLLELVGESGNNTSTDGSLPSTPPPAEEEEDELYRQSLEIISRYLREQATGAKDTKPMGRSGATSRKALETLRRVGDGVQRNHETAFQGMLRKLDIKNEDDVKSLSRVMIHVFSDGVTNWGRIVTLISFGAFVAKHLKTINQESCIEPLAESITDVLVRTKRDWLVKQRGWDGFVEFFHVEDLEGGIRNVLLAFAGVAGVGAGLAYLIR

As a reminder, the Kd is the equilibrium constant for the complex coming apart. One may read the IC50 as the concentration that gives 50% inhibition. Read a high IC50 as a need for much substance. In experiment [1], CAQFRRIGDKVNLRQKLLN [NOXA75–93 L78F 75-93, Q9JM54] came in with a Kd of 1700 nM. Further, the IC50 in experiment [2] was 2700 nM.

Consider CAQWRRIGDKVNLRQKLLN [NOXA75–93 L78W 75-93, Q9JM54], for which the Kd in experiment [1] stood at 2400 nM. In experiment [2], this molecule registered a half-inhibitory concentration (IC50) of 2200 nM.

For the molecule CAQLRRIGDKFNLRQKLLN [NOXA75–93 V85F 75-93, Q9JM54], the Kd in experiment [1] stood at 800 nM. Also, in experiment [2], the IC50 was > 20000 nM.

Regarding CAQYRRIGDKVNLRQKLLN [NOXA75–93 L78Y 75-93, Q9JM54], the IC50 in experiment [2] was > 100000 nM.
